Test results as given in patent publication US5935824A, “Protein expression system” (Technologene, Inc., priority 1996, dated 1999).

Substrate: C[C@H](NC(=O)[C@H](Cc1ccccc1)NC(=O)OCc1ccccc1)C(=O)O
Experiment: Flow digestion of N-CBZ-peptides through CPD-Y Acti Disk, ninhydrin assays
Type: biochemical, yeast
Settings: other: free enzyme; calculated from Sigma specific activity
Method: The reported Km values for CPD-Y have been generated using extremely low enzyme concentration compared to substrate concentration. The value for Km represents the concentration of substrate that will produce 1/2 the maximum velocity for the initial reaction rates. During the testing of the immobilized CPD-Y enzyme disks with various dipeptide substrates, the maximum flow rate that can be achieved without any substantial increase in the pressure of the solution, is 4 ml/min. At this flow rate, the substrate remains within the immobilized enzyme matrix for 1.74 seconds. This value is determined by dividing the internal porous volume of the matrix to which the enzyme is immobilized (115 μL/4000 μL, min^-1). […]
Standard ninhydrin assay: Hydrolysis of the non-proline containing N-CBZ-dipeptides was determined by assaying the amount of free amino acid released by a colorometric ninhydrin reaction at a pH greater than 5.2. […] Samples were then cooled to room temperature and 600 μl of 60% ethanol was added as the diluent and the absorbance was read at 570 nm on a Beckman DU 7000 spectrophotometer.
Proline ninhydrin assay: Hydrolysis of proline-containing N-CBZ-dipeptides were measured with a modified version of the assay described by Magne and Larher [Anal. Biochem., 200:115 (1982)]. […]

B1: carboxypeptidase Y (CPD-Y) immobilized to Acti-Disk (Saccharomyces cerevisiae S288C) (protein)
chain: KIKDPKILGIDPNVTQYTGYLDVEDEDKHFFFWTFESRNDPAKDPVILWLNGGPGCSSLTGLFFELGPSSIGPDLKPIGNPYSWNSNATVIFLDQPVNVGFSYSGSSGVSNTVAAGKDVYNFLELFFDQFPEYVNKGQDFHIAGESYAGHYIPVFASEILSHKDRNFNLTSVLIGNGLTDPLTQYNYYEPMACGEGGEPSVLPSEECSAMEDSLERCLGLIESCYDSQSVWSCVPATIYCNNAQLAPYQRTGRNVYDIRKDCEGGNLCYPTLQDIDDYLNQDYVKEAVGAEVDHYESCNFDINRNFLFAGDWMKPYHTAVTDLLNQDLPILVYAGDKDFICNWLGNKAWTDVLPWKYDEEFASQKVRNWTASITDEVAGEVKSYKHFTYLRVFNGGHMVPFDVPENALSMVNEWIHGGFSL
notes: purchased Sigma
- kcat: 103.3 s⁻¹
